Experimental data reported in the supplement of paper PMC6757056.
± gives the standard deviation of the averaged measurements.

B1: library; a variant is named by its letters at N, in order (parent)
chain: GCUGUCACCGAGAAACUGUGAAGUAUAUCUUAAACCUGGGCACUUAAAAGAUAUAUGGAGUUAGUAGUGCAACCUGCUCGGUCUGAUGAGUCCNNNNNNGGACGAAACAGC

Tests used:
[1] = variants of: B1; test: FACS-Seq fitted mean relative fluorescence mCherry/BFP without ligand (log10 relative fluorescence); HEK293T; ligand: cyclic di-GMP (c-di-GMP-II aptamer); higher = higher reporter protein expression; conditions: ligand present: no
Description: (§1)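 Hammerhead (sTRSV) ribozyme switch libraries with a ligand aptamer grafted on stem I and a randomized N4-6 loop II, cloned into the 3' UTR of mCherry and transiently transfected into HEK293T cells; RNA-Seq 72 h post transfection with ligand added 1 h before transfection; RNA read count / plasmid DNA read count normalized to the non-cleaving sTRSVctl (x100), log10; sequences with >100 DNA reads. FACS-Seq: lentiviral library sorted into 6 bins after 48 h ligand, log-normal fit mean of mCherry/BFP scaled to controls. Printed sequences are partial switch sequences.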

[2] = variants of: B1; test: normalized RNA/DNA level without ligand (relative to sTRSVctl = 100) (log10 (% of sTRSVctl)); HEK293T; ligand: cyclic di-GMP (c-di-GMP-II aptamer); higher = less ribozyme self-cleavage, higher mRNA level; conditions: reporter: mCherry (pCS4076), ligand present: no
Description: as §1

[3] = variants of: B1; test: FACS-Seq fitted mean relative fluorescence mCherry/BFP with ligand (log10 relative fluorescence); HEK293T; ligand: cyclic di-GMP (c-di-GMP-II aptamer); ligand concentration (+) FACS-Seq: 1 mM; higher = higher reporter protein expression; conditions: ligand present: yes
Description: as §1

[4] = variants of: B1; test: normalized RNA/DNA level with ligand (relative to sTRSVctl = 100) (log10 (% of sTRSVctl)); HEK293T; ligand: cyclic di-GMP (c-di-GMP-II aptamer); ligand concentration (+) RNA-Seq: 1 mM; higher = less ribozyme self-cleavage, higher mRNA level; conditions: reporter: mCherry (pCS4076), ligand present: yes
Description: as §1

Row | Variant | FACS-Seq fitted mean (log10) [1] | normalized RNA/DNA level without ligand (log10) [2] | FACS-Seq fitted mean (log10) [3] | normalized RNA/DNA level with ligand (log10) [4]
1 | GCUGUCACCGAGAAACUGUGAAGUAUAUCUUAAACCUGGGCACUUAAAAGAUAUAUGGAGUUAGUAGUGCAACCUGCUCGGUCUGAUGAGUCCUAAUGCGGACGAAACAGC [UAAUGC] | -0.174 ± 0.058 | 1.69 ± 0.032 | -0.398 ± 0.12 | 1.84 ± 0.073
2 | GCUGUCACCGAGAAACUGUGAAGUAUAUCUUAAACCUGGGCACUUAAAAGAUAUAUGGAGUUAGUAGUGCAACCUGCUCGGUCUGAUGAGUCCUAAUGAGGACGAAACAGC [UAAUGA] | -0.416 ± 0.019 | 1.597 ± 0.0061 | -0.112 ± 0.13 | 1.77 ± 0.086
3 | GCUGUCACCGAGAAACUGUGAAGUAUAUCUUAAACCUGGGCACUUAAAAGAUAUAUGGAGUUAGUAGUGCAACCUGCUCGGUCUGAUGAGUCCAAAUGAGGACGAAACAGC [AAAUGA] | -0.5596 ± 0.00088 | 1.43 ± 0.061 | -0.289 ± 0.037 | 1.62 ± 0.089
4 | GCUGUCACCGAGAAACUGUGAAGUAUAUCUUAAACCUGGGCACUUAAAAGAUAUAUGGAGUUAGUAGUGCAACCUGCUCGGUCUGAUGAGUCCAAAUAUGGACGAAACAGC [AAAUAU] | -0.442 ± 0.052 | 1.6004 ± 0.00073 | -0.152 ± 0.097 | 1.78 ± 0.11
5 | GCUGUCACCGAGAAACUGUGAAGUAUAUCUUAAACCUGGGCACUUAAAAGAUAUAUGGAGUUAGUAGUGCAACCUGCUCGGUCUGAUGAGUCCGAAUGAGGACGAAACAGC [GAAUGA] | -0.606 ± 0.037 | 1.48 ± 0.06 | -0.296 ± 0.056 | 1.65 ± 0.16
6 | GCUGUCACCGAGAAACUGUGAAGUAUAUCUUAAACCUGGGCACUUAAAAGAUAUAUGGAGUUAGUAGUGCAACCUGCUCGGUCUGAUGAGUCCGAAUGCGGACGAAACAGC [GAAUGC] | 0.00373 ± 0.18 | 1.63 ± 0.013 | 0.31 ± 0.049 | 1.75 ± 0.12
7 | GCUGUCACCGAGAAACUGUGAAGUAUAUCUUAAACCUGGGCACUUAAAAGAUAUAUGGAGUUAGUAGUGCAACCUGCUCGGUCUGAUGAGUCCUAAUAGGGACGAAACAGC [UAAUAG] | -0.126 ± 0.087 | 1.667 ± 0.0048 | -0.0799 ± 0.024 | 1.83 ± 0.099
8 | GCUGUCACCGAGAAACUGUGAAGUAUAUCUUAAACCUGGGCACUUAAAAGAUAUAUGGAGUUAGUAGUGCAACCUGCUCGGUCUGAUGAGUCCUAAUCGGGACGAAACAGC [UAAUCG] | -0.029 ± 0.037 | 1.7 ± 0.017 | 0.149 ± 0.061 | 1.82 ± 0.17
9 | GCUGUCACCGAGAAACUGUGAAGUAUAUCUUAAACCUGGGCACUUAAAAGAUAUAUGGAGUUAGUAGUGCAACCUGCUCGGUCUGAUGAGUCCUAAUCUGGACGAAACAGC [UAAUCU] | -0.884 ± 0.042 | 1.718 ± 0.0051 | -0.707 ± 0.054 | 1.85 ± 0.08
10 | GCUGUCACCGAGAAACUGUGAAGUAUAUCUUAAACCUGGGCACUUAAAAGAUAUAUGGAGUUAGUAGUGCAACCUGCUCGGUCUGAUGAGUCCCAAUCAGGACGAAACAGC [CAAUCA] | -0.5458 ± 0.0024 | 1.4 ± 0.11 | -0.364 ± 0.017 | 1.61 ± 0.085
11 | GCUGUCACCGAGAAACUGUGAAGUAUAUCUUAAACCUGGGCACUUAAAAGAUAUAUGGAGUUAGUAGUGCAACCUGCUCGGUCUGAUGAGUCCCAAUCUGGACGAAACAGC [CAAUCU] | -1.02 ± 0.16 | 1.54 ± 0.069 | -0.88 ± 0.038 | 1.71 ± 0.13
12 | GCUGUCACCGAGAAACUGUGAAGUAUAUCUUAAACCUGGGCACUUAAAAGAUAUAUGGAGUUAGUAGUGCAACCUGCUCGGUCUGAUGAGUCCCAAUCCGGACGAAACAGC [CAAUCC] | -0.487 ± 0.028 | 1.75 ± 0.049 | -0.368 ± 0.016 | 1.87 ± 0.11
13 | GCUGUCACCGAGAAACUGUGAAGUAUAUCUUAAACCUGGGCACUUAAAAGAUAUAUGGAGUUAGUAGUGCAACCUGCUCGGUCUGAUGAGUCCCAAUAUGGACGAAACAGC [CAAUAU] | -0.659 ± 0.028 | 1.49 ± 0.061 | -0.365 ± 0.019 | 1.67 ± 0.11
